The supplement of paper PMC9112550, “Optimization of the antimicrobial peptide Bac7 by deep mutational scanning” (BMC Biology, 2022)

system: Escherichia coli TOP10; assay: shrunken log2 fold change of peptide-encoding DNA abundance (4.5 h post-induction vs induction); higher = less antimicrobial activity (less host growth inhibition); details: time post-induction: 4.5 h; library: site-saturation at positions 5, 18, 19, 20
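Further: peptides expressed intracellularly from a pBAD plasmid library in pooled LB shake-flask culture, induced with 0.3% L-arabinose, DNA abundance read by NGS, three biological replicates, DESeq2 with apeglm shrinkage.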

Row | Sequence | shrunken log2 fold change
1 | RRIRPRPPRLPRPRPRPAHKPRP | -0.46
2 | RRIRGRPPRLPRPRPRPLAYPRP | 0.721
3 | RRIRCRPPRLPRPRPRPPCTPRP | -0.0939
4 | RRIRDRPPRLPRPRPRPWSDPRP | -0.0204
5 | RRIRHRPPRLPRPRPRPYQGPRP | -0.00674
6 | RRIRTRPPRLPRPRPRPLLEPRP | 0.024
7 | RRIRFRPPRLPRPRPRPNHVPRP | -0.276
8 | RRIRTRPPRLPRPRPRPVVCPRP | 0.0187
9 | RRIRQRPPRLPRPRPRPDTLPRP | 0.016
10 | RRIRYRPPRLPRPRPRPCECPRP | -0.0717
11 | RRIRSRPPRLPRPRPRPQQQPRP | -0.0954
12 | RRIRFRPPRLPRPRPRPIKHPRP | -0.485
13 | RRIRHRPPRLPRPRPRPSLNPRP | -0.51
14 | RRIRIRPPRLPRPRPRPGVQPRP | -0.00174
15 | RRIRVRPPRLPRPRPRPFCIPRP | -0.447
16 | RRIRNRPPRLPRPRPRPSTPPRP | -0.103
17 | RRIRPRPPRLPRPRPRPMHMPRP | 0.0173
18 | RRIRARPPRLPRPRPRPWEDPRP | -0.015
19 | RRIRHRPPRLPRPRPRPLEIPRP | -0.0535
20 | RRIRHRPPRLPRPRPRPDLMPRP | -0.175
21 | RRIRHRPPRLPRPRPRPTTDPRP | -0.136
22 | RRIRWRPPRLPRPRPRPPPQPRP | 0.905
23 | RRIRNRPPRLPRPRPRPCHIPRP | -0.366
24 | RRIRIRPPRLPRPRPRPVGSPRP | 0.36
25 | RRIRGRPPRLPRPRPRPCMGPRP | 0.289

Row | Sequence | shrunken log2 fold change
26 | RRIRWRPPRLPRPRPRPQLRPRP | 0.0178
27 | RRIRERPPRLPRPRPRPFDNPRP | 3.45
28 | RRIRPRPPRLPRPRPRPHNCPRP | -0.111
29 | RRIRGRPPRLPRPRPRPGSNPRP | 0.0237
30 | RRIRMRPPRLPRPRPRPWKHPRP | -0.109
31 | RRIRNRPPRLPRPRPRPGFFPRP | 0.263
32 | RRIRCRPPRLPRPRPRPWYGPRP | -0.49
33 | RRIRLRPPRLPRPRPRPKMLPRP | -0.0541
34 | RRIRFRPPRLPRPRPRPEHKPRP | -0.0193
35 | RRIRKRPPRLPRPRPRPPVMPRP | 0.337
36 | RRIRSRPPRLPRPRPRPLDTPRP | -0.157
37 | RRIRYRPPRLPRPRPRPFVNPRP | 0.017
38 | RRIRIRPPRLPRPRPRPQRTPRP | 0.0834
39 | RRIRSRPPRLPRPRPRPFRFPRP | -0.21
40 | RRIRTRPPRLPRPRPRPTVRPRP | 2.09
41 | RRIRLRPPRLPRPRPRPKKMPRP | 0.126
42 | RRIRLRPPRLPRPRPRPFAAPRP | 0.281
43 | RRIRGRPPRLPRPRPRPVTSPRP | 0.203
44 | RRIRWRPPRLPRPRPRPDVCPRP | -0.0101
45 | RRIRVRPPRLPRPRPRPMNTPRP | -0.312
46 | RRIRTRPPRLPRPRPRPHVKPRP | -0.126
47 | RRIRMRPPRLPRPRPRPYPSPRP | -0.0577
48 | RRIRARPPRLPRPRPRPQIAPRP | 0.499
49 | RRIRGRPPRLPRPRPRPEQHPRP | 0.66
50 | RRIRPRPPRLPRPRPRPFMLPRP | -0.378

Row | Sequence | shrunken log2 fold change
51 | RRIRLRPPRLPRPRPRPRIIPRP | -1.12
52 | RRIRWRPPRLPRPRPRPNIEPRP | -0.0429
53 | RRIRERPPRLPRPRPRPSPKPRP | 0.0298
54 | RRIRHRPPRLPRPRPRPFSFPRP | -0.363
55 | RRIRQRPPRLPRPRPRPEVRPRP | 0.0665
56 | RRIRTRPPRLPRPRPRPKEFPRP | -0.0177
57 | RRIRVRPPRLPRPRPRPIGFPRP | 0.187
58 | RRIRTRPPRLPRPRPRPKYSPRP | -0.413
59 | RRIRLRPPRLPRPRPRPPEYPRP | -0.26
60 | RRIRYRPPRLPRPRPRPRCIPRP | -0.308
61 | RRIRSRPPRLPRPRPRPGQYPRP | -0.113
62 | RRIRHRPPRLPRPRPRPLEAPRP | -0.00262
63 | RRIRHRPPRLPRPRPRPTNLPRP | -0.288
64 | RRIRERPPRLPRPRPRPDQMPRP | -0.161
65 | RRIRLRPPRLPRPRPRPLPFPRP | -0.289
66 | RRIRERPPRLPRPRPRPPPKPRP | 0.748
67 | RRIRARPPRLPRPRPRPAIPPRP | -0.101
68 | RRIRQRPPRLPRPRPRPSRPPRP | 0.37
69 | RRIRDRPPRLPRPRPRPCAKPRP | 0.244
70 | RRIRIRPPRLPRPRPRPKLDPRP | -0.106
71 | RRIRFRPPRLPRPRPRPMRIPRP | 0.068
72 | RRIRHRPPRLPRPRPRPLQTPRP | 0.139
73 | RRIRDRPPRLPRPRPRPRKYPRP | -0.283
74 | RRIRKRPPRLPRPRPRPWSKPRP | 0.00888
75 | RRIRMRPPRLPRPRPRPHYMPRP | -0.425

Row | Sequence | shrunken log2 fold change
76 | RRIRERPPRLPRPRPRPSQPPRP | 0.0471
77 | RRIRTRPPRLPRPRPRPCTKPRP | 0.0197
78 | RRIRPRPPRLPRPRPRPWGKPRP | 0.248
79 | RRIRDRPPRLPRPRPRPPGWPRP | 1.66
80 | RRIRTRPPRLPRPRPRPDTVPRP | -0.0391
81 | RRIRRRPPRLPRPRPRPVNRPRP | -0.0157
82 | RRIRKRPPRLPRPRPRPNYSPRP | -0.0472
83 | RRIRNRPPRLPRPRPRPDLNPRP | 0.274
84 | RRIRMRPPRLPRPRPRPFHSPRP | -0.0121
85 | RRIRGRPPRLPRPRPRPAYPPRP | -0.0884
86 | RRIRFRPPRLPRPRPRPWHDPRP | 0.0237
87 | RRIRLRPPRLPRPRPRPNGRPRP | -0.192
88 | RRIRWRPPRLPRPRPRPGDNPRP | 0.106
89 | RRIRWRPPRLPRPRPRPDMNPRP | 0.143
90 | RRIRERPPRLPRPRPRPGCIPRP | -1.12
91 | RRIRMRPPRLPRPRPRPRDEPRP | 1.43
92 | RRIRPRPPRLPRPRPRPERKPRP | 0.489
93 | RRIRPRPPRLPRPRPRPHPKPRP | 0.347
94 | RRIRQRPPRLPRPRPRPNMVPRP | -0.0131
95 | RRIRGRPPRLPRPRPRPGYFPRP | 3.3
96 | RRIRIRPPRLPRPRPRPVQYPRP | -0.106
97 | RRIRDRPPRLPRPRPRPNKDPRP | -0.951
98 | RRIRKRPPRLPRPRPRPGRQPRP | 0.143
99 | RRIRFRPPRLPRPRPRPTLPPRP | 0.23
100 | RRIRCRPPRLPRPRPRPCFYPRP | -0.675

Row | Sequence | shrunken log2 fold change
101 | RRIRNRPPRLPRPRPRPDMDPRP | -0.0127
102 | RRIRLRPPRLPRPRPRPPNWPRP | 0.377
103 | RRIRYRPPRLPRPRPRPESPPRP | -0.0215
104 | RRIRIRPPRLPRPRPRPCREPRP | -0.0225
105 | RRIRHRPPRLPRPRPRPIFAPRP | 0.158
106 | RRIRVRPPRLPRPRPRPLDPPRP | -0.258
107 | RRIRIRPPRLPRPRPRPVDTPRP | -0.282
108 | RRIRFRPPRLPRPRPRPTHPPRP | -0.0806
109 | RRIRYRPPRLPRPRPRPSNAPRP | -1
110 | RRIRARPPRLPRPRPRPDHLPRP | -0.0183
111 | RRIRCRPPRLPRPRPRPWRLPRP | 0.0337
112 | RRIRNRPPRLPRPRPRPISNPRP | 0.0351
113 | RRIRTRPPRLPRPRPRPETEPRP | -0.016
114 | RRIRTRPPRLPRPRPRPIMRPRP | 0.25
115 | RRIRIRPPRLPRPRPRPNFQPRP | -0.417
116 | RRIRPRPPRLPRPRPRPLPYPRP | -0.31
117 | RRIRNRPPRLPRPRPRPNYLPRP | -0.354
118 | RRIRVRPPRLPRPRPRPDEVPRP | 0.0201
119 | RRIRHRPPRLPRPRPRPAEHPRP | -0.144
120 | RRIRDRPPRLPRPRPRPWGCPRP | 0.166
121 | RRIRNRPPRLPRPRPRPWGCPRP | -0.00572
122 | RRIRYRPPRLPRPRPRPNYPPRP | -0.79
123 | RRIRLRPPRLPRPRPRPYYVPRP | -0.0539
124 | RRIRCRPPRLPRPRPRPPGLPRP | 0.72
125 | RRIRMRPPRLPRPRPRPGPRPRP | 1.46

Row | Sequence | shrunken log2 fold change
126 | RRIRVRPPRLPRPRPRPKHRPRP | 0.356
127 | RRIRMRPPRLPRPRPRPWAVPRP | 0.396
128 | RRIRPRPPRLPRPRPRPMLAPRP | 0.281
129 | RRIRVRPPRLPRPRPRPPTCPRP | 0.141
130 | RRIRHRPPRLPRPRPRPLNVPRP | -0.588
131 | RRIRDRPPRLPRPRPRPNSVPRP | -0.0426
132 | RRIRCRPPRLPRPRPRPTQTPRP | 0.286
133 | RRIRMRPPRLPRPRPRPWVRPRP | 0.0882
134 | RRIRTRPPRLPRPRPRPKWYPRP | -0.468
135 | RRIRDRPPRLPRPRPRPMHLPRP | -0.339
136 | RRIRGRPPRLPRPRPRPWTKPRP | 0.0647
137 | RRIRTRPPRLPRPRPRPPCPPRP | 0.15
138 | RRIRMRPPRLPRPRPRPSIMPRP | 0.23
139 | RRIRNRPPRLPRPRPRPAVHPRP | -0.0211
140 | RRIRYRPPRLPRPRPRPPPVPRP | 0.61
141 | RRIRIRPPRLPRPRPRPEKEPRP | -0.00237
142 | RRIRDRPPRLPRPRPRPVYEPRP | -0.105
143 | RRIRYRPPRLPRPRPRPWDWPRP | -0.0724
144 | RRIRFRPPRLPRPRPRPCCLPRP | -0.725
145 | RRIRSRPPRLPRPRPRPFVPPRP | -0.27
146 | RRIRKRPPRLPRPRPRPLRDPRP | 0.757
147 | RRIRWRPPRLPRPRPRPSTRPRP | 0.00128
148 | RRIRTRPPRLPRPRPRPNGWPRP | 0.215
149 | RRIRLRPPRLPRPRPRPSMNPRP | -0.345
150 | RRIRGRPPRLPRPRPRPQPWPRP | 0.68
